Reference: a protein production outcome set (Wang et al. 2014)

Assay: label from the status in PepcDB records
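Also: failed if final PepcDB status was selected cloned or expressed and not failed if soluble or beyond.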

In the case of “MIQLRPCPKSYTRDQDKATTPAETVRRVRERLASLDISILAETRRVDVGRLGIPVFLSVCGADARAVMPTRKQMGKGASLEQAQASALMELMERYSFFTFWRDMPGMVEATWSEARNRFGDALIPVDEILHSVHDTLSPDDAVRALDLWRWKFFPATDITHGREVWLPLDWFKKLGEFNGSSAGNTEEESILQGSCELVERHVCCLIDRTQPELPTIDPASLDDPVLLELAAAFERNGIRLVLKDFSMGMPVPTVGAIAWDPATFPERSEIVYTAGTSSSPVKAAIRAVTEVAQLAGDFCTGACYEASGLSKYESLDDIAWLVAGPVVALDTLPSVETDDIRDELAALCDGLAATGHTLYSVSTMNPDVGVNTHYNIVPGFHFRERDRNASLGLFIGRILSEEADAGTALAGLSVLEELYPGAHFLPFFKGMLALRAESHHEAISFFEQAEPLQPEADSRGLAAFYGAYVRTLLTDWQGALPGLDRAVTECPEMKEYFNLRGVCHFKLGDYAQAAQNFAQVLHIDKGAVVDLANLGLCHKFMGDTEKAEELLSAALEIDPGLDFARRHLDEMRQP”, the protein production is reported as “failed”.

With “MVESKNTELSQGTWLNKPKSVFQEAGKVTLETDEKTDFWRETFYGFTRDSGHFLGVETGSAFTAQVRVQGSYESLYDQAGIMVRIDDGHWLKAGIEISDGHAMLSSVLTNGKSDWSTAVYGGNARDFWLRVTVEKGVLRIQVSSDKKTWPLVRLAPFPTSDHYLVGPMACTPERGGLKVTFSEWSLTAPLGKALHDLS” the protein production was “failed”.

For “MSLANKPLAKALETISGIPITPFRKSDGSIDWHHYKETVDRIVDNGIDVIVPCGNTSEFYALSLEEAKEEVRRTVEYVHGRALVVAGIGYATSTAIELGNAAKAAGADAVMIHMPIHPYVTAGGVYAYFRDIIEALDFPSLVYFKDPEISDRVLVDLAPLQNLVGVKYAINDLPRFAKVVRSIPEEHQIAWICGTAEKWAPFFWHAGAKGFTSGLVNLLPQKAVEMLEALRNNDNDAVWRIWEDIVPFEDLRGKYNQGNNVVVIKEAMEMLRQNAGVTRAPVNELSNEDKQLVTELLSSWKLLQPTKGEGHHHHHH”, the protein production was “not failed”.

With “HIQKGIAGEQKACAFLEQQGYKIIEKNLRIGKGEIDLIAVHNNCMCFIEVKYRKHNRYGFPEEFVTQKKLLKIQETAEAYIYTVNWQGRIRFDVVAITGEELPVHL” the protein production was “failed”.

With “MSHALRAVFLDHASLDLGDLDMRPLRAAFDELQLHAASQPQEVAARLHDARVAISNKVPIDAQCIAACPELELILISATGTNNIDLAAARERGIVVANCHGYGTPSVAQHTLALLLALATRLPDYQQAVRSGRWQQSSQFCLLDFPIVELEGKTLGLLGHGELGGAVARLAEAFGMRVLLGQLPGRPARADRLPLGELLPRVDALTLHCPLTEDTRGMLGSAELALMKPGAFLVNTARGGLVDEQALADALRGGHLGGAATDVLSVEPPRNGNPLLAPDIPRLIVTPHNAWGSREARQRIVGQLAENAEAWKAGR” the protein production was “failed”.

In the case of “MSIHVNEANLTFHLQTDHTSYIFQIMKNGEAGQIYYGPRIHVQPTYQNLMSQEWRDATPSLNEENPNFQPATIKAEYASLGKGDFRQPAFQVTQANGSRITELTYDHYQLLTGKQRLANLPSTFDDTDDDAQTLVVSFNDRITGLALDLNYSIFPHQDVIVKSAKFTNPSSEKLVLNRALSSQLDLPDANYDLIQFSGTWARERHLYRHPLRPGMQSISSLRMASSHQQNPFMMLARPQTTDEQGAVFGFNLVYSGNFLDAIEVDQYSTSRILTGINPDEFGWNLAPQATFQTPEAILSYTSAGMNQLSQQMASFYQQHLVNPRFAHEERPVLINNWEATYFDFNEAKLMTIVNQAKRLGIEMFVLDDGWFGHRDDDTTSLGDWFVDQRKFPDGIEHFSQAVHQQGMKFGLWFEPEMVSVDSDLYQQHPDWLIHAPKSTPTPGRHQFVLDMARPEVVDYLFKLMSQMIESANLDYIKWDMNRYATEMFSSRLTSDQQLELPHRYILGVYQLYARLTQAYPNVLFESCASGGGRFDLGMMYYAPQAWTSDDTDAAERLLIQFGTSYGYPQAMMGAHVSAVPNDQMGRITSLKTRGAVAFFGDLGYELDITKMAPTELDQVKKQVAFYKCYRQLFQFGKFYRIDSPFVEDGNVTSWQVVSDDQKQAIAARYQLLNHPNAPYTRFYFKGLRPNQRYQINDDPSTYYGDELMNAGYFVPTILADGQESKDFYTQLFVVTAILEHHHHHH”, the protein production is reported as “not failed”.

For “MDPHVSHSAHLFSLRIAHALNEACVKDRYSFKRFGQDLLAGLTVGIIAIPLAMALAIASGVPPQYGLYTAIVGGFIIAMTGGSRYSVSGPTAAFVVLLYPIAQQFGLAGLLIATVMSGMMLVAMAMLRLGRLILYIPESVTLGFTAGIGVVIATLQLKDFFGLQIEHMPEQYFAKLMALGQALPSLHLPSLFIAAATLATMLLWPRLKIPVPAHLPAIALGSILALILNAMGAEIETIGTRFHYQLTDGGIGSGIPAVLPHFEWPWLQTGPNGQAFEFNLAAFQALLPAAFAIAMLGAIESLLCAVVLDGMTGKRHSANSELLGQGIGNIIAPFFGGIPATAAIARSAANVKAGAQSPIASMIHALVVLIGLVALAGILAYLPMSAMAALLLVVAWNMSEAPKAVHLLKTAPTSDILVFLSCFSLTVIFDMVIAISVGIILAALLFMKEIAEMTKLYDISSNKRYVDQSLPADWAVLKINGPLFFAAADRIFAEIASLTQDKQVIVLYLDGVSILDAGGLAALSKLIEKCKLNQTKLLITDLQFQPIRTLAKAKIQPVEGVLKFYPTLREALTEAPSPELEATPEATD”, the protein production was “failed”.

In the case of “MFDNLTDRLSRTLRNISGRGRLTEDNVKDTLREVRMALLEADVALPVVREFINRVKEKAVGHEVNKSLTPGQEFVKIVRNELVAAMGEENQTLNLAAQPPAVVLMAGLQGAGKTTSVGKLGKFLREKHKKKVLVVSADVYRPAAIKQLETLAEQVGVDFFPSDVGQKPVDIVNAALKEAKLKFYDVLLVDTAGRLHVDEAMMDEIKQVHASINPVETLFVVDAMTGQDAANTAKAFNEALPLTGVVLTKVDGDARGGAALSIRHITGKPIKFLGVGEKTEALEPFHPDRIASRILGMGDVLSLIEDIESKVDRAQAEKLASKLKKGDGFDLNDFLEQLRQMKNMGGMASLMGKLPGMGQIPDNVKSQMDDKVLVRMEAIINSMTMKERAKPEIIKGSRKRRIAAGCGMQVQDVNRLLKQFDDMQRMMKKMKKGGMAKMMRSMKGMMPPGFPGR”, the protein production is reported as “failed”.

In the case of “MDTIRSIFIIWKDDRMSFLNNSIIYHIAIILYACSISLYFIDYFQSNRKANRFAFWLLSIVWVLHSIFMLLRATDSETNPLLTLLSGIYFYVWLLITMSLVINRFMRIDFLVFFTNVVAFGVSAFSIFTPLGKMSPVLAEQLVSELVYVHVGMAIISYATFTVSFIFSIMYLLQYRLLKKKKWNARLRRLGNLPKLESMSYGLNLFSVPFFLLAILLGCIWGYTKLDNFHWYDTKVIGSFVVLFVYCAGLYLRAADVLQGKKIVQWNIGAFLVMLINIFLLSSLSNFHFWYL”, the protein production is reported as “failed”.

For “PEAMLIVDQNGQIVFSNSRCQQLFGYDAKAMLALQIETLLPEELRHLHTGERLDFLREGRDRPMASARHVRALKSDGGEFVAEIALSILPSDFD”, the protein production was “failed”.

In the case of “MEKIERLRSAFDEAGIDGILLTNEHSRRYMANFTGTAGVVLISKKRAQFITDFRYVEQASKQAVGYEIVQHAGLIIDEVAKQVKELGIQKLGFEQDTLTYSSYSAHKEAIDAEFIPTSGLVEKLRLIKTDSEIKILKEAAQIADAAFEHILSFIRPGVSEIEVSNELEFFMRKQGATSSSFDIIVASGLRSALPHGVASEKVIETGDFVTLDFGAYYKGYCSDITRTIAVGEPSDKLKEIYNIVLEAQLRGVNGIKAGLTGREADALTRDYITEKGYGEYFGHSTGHGIGLEIHEAPGLAFRSDTVLEPGMAVTVEPGIYIPGIGGVRIEDDIIVTSEGNEVITKSPKELIIL”, the protein production is reported as “not failed”.

In the case of “MDRPERSEVLSPEDFLQAMPIGKTASILDLGAGTGFLTIPAAKLVDNTVFALDLDAKMLELIESKAKEAGLANVETLEASMDDIPLEANSVDVVLASLVLHEADSLADVLREVSRVVKTGGYFASLEFDTKGTDLKGPPMEIQISAEKLKEELAGFGFEVVKNWQLDEGMYVSIAVKKLEHHHHHH”, the protein production is reported as “not failed”.

In the case of “MSSKEEILSILEAFASTERMGSFFLDNATADFLFIRPSGNPLDAKGFENMWSSGDLVLESAEITKVHKFELLGSNAAICVFTLGSKFTYKGTQNDDLPTVTSIFKKIDEKWKVAWMQRSSGQSDMTLWNE”, the protein production is reported as “not failed”.

For “MREHHHNLRHYTLYAATIITITTLVRFWFVASGQLDLVQDEAQYWDWTRRLQLSYYSKGPLIAWLIGMWTGVFGDTELGVRFGALAGSALAQVMLFLGVGRLFGRPRLALLTLGVANTTPLFMVAGVLMTTDGPLLLCWLGALLCIHAATRTPRATAPYLLLAMCMAVGVLAKYMMLAVAAIACLHMWLLHRQRLLPQGVALRVVCACLAGAACGMLPILLWNAQNDWVGFKHVGTLAGVTGKASKAFLRLDRLPEHLGAQLGVATPWWLLLMLGMAWRSLRIAWTGVVPPGEPAEAAGREEAVRQSSLLFCAFMPLWGVITLWSLHTRIYPNWPAMSYVGGIILAAAGVERLLDGLGAPRWRRLVPLWFTLGACLFAAAHFQNTLPLPASLNPAARLKGWEDLGRELDRVRHGLPHPDRVFFFSDAYDITAELAFYVPGKPFTFCADFGRRMSQYDLWPSPADKVGWDAVFVRRDGTSVPRELLEMFDSAELYRYQSTHHGAPGRVFTVIVLRGFNGEWPRRSFRSF”, the protein production was “failed”.

In the case of “AADPVVVPANMEPLTIEGNRFVTLCIMIRTTPWEVSRDVKLHPRDEVDWHTLEGVRALREAFATNNPNGRLTWGFTMNALEDGRKNYREIRDYVVECQKKYGDEVTYFPGYFPAMYLPRERVNREMSEAIEIISKMVGNGYRPQSIMGGFLSADNLRYLAEKENIHVAHAVIWSQHNIDGGGADGSPSYPFYPSTEHFCKPAQGKSDFIDCVNLDGWTMDFICARRSGQTGHGIDGYNSRRGVGPIETYKGWGLDLGHREVMHTEAIHFDKGLELNGFGWVANIWEAQMVHEFGKDLICDAMKMWVTGTKERWPDTHFVTFGEFGELWRKQYKSNDDWNYRFVERGSGLGDSYNNLEIKWFMNKEFRLALLRDWHTKNSPAYVIDFTRYDLQAHEPADPSPEKPAKDWSLINKINQKALRPQDKPVLIDKLEKEDQDLIRKYYPELLK”, the protein production is reported as “not failed”.

With “MTNTPRQGATLAVLIDADNAAPAIVEGLLAEVAKYGVAAVKRIYGDWTRPNLSGWKDRLLAHSIQPIQQFRYTVGKNATDSAMIIDAMDLLYTGRFDGFCIVSSDSDFTRLASRIREQGLTVYGFGERKTPKPFVTACDKFIYSDVLRADADSDSDSETGSAPARKRTTQELRQDSRLVRLLQSASQAVSDEDGWSTLGGIGNYIAKQAPEFDSRNYGYGKLSELVTATNLFEVETRNGGNNKTLWVRLKKRNKGEGGGQPQPAQPQQQQQPQQQGQSSQPSQSQQPSQQAQPQQQRPAPAPARPVQPAPEPVAVIPATEPARVTEEEDDDAAGSASTLIQEAVEVSTERPKAGGKRGKRPDVTLSDTPWPIDQSVFSAPGATVLSAQVDVPEETKAAAPAEEAKKPAKKKPAAKKAAPRKRAPAKKAAAAE” the protein production was “failed”.

In the case of “MQPCPSEAPRVLHALTRRGMALALAATLSLVLSACGGGGDDTAAATTAPPSSNAVTPSPSPAPAPTYSVGGTVAGLGSGLSVKLLNNGGDAVTVTANGNFQFPTALASGAQYAATVGTRPSGQQCTIANDSGTMGSANVTNIAVTCSTRPLFAYTANSNDNTVSAYTLDPTTGAPTLIGTPISVGQGPLSLIADKAGKFVYVVDGNDNSVTTLAIDSETGLLTISGTPATTGMQPFNIARTPASTFAYTTNFGDNTLSGFSINATTGVLTSIGTIAAGTNPYTIVINKAGTFAYVVNAASGAGTPSAMVFSINGATGALTAVGSPVATGNAPFYIALHPAGTFAYVANSQDNTVQVYAINQTTGALTAVGSPVATGQGPIPIAIHPSGLFAYVGNVFDNTVSLYAINTGTGALTLKSTLATGNDPLAITLNDAGSIAYIVNGVDHDVVAYAVDSSTGALTSVATAQTGLLPRAFAIVAVP”, the protein production is reported as “failed”.
